Experimental data taken from patent US11779649B2, “Antibodies to PMEL17 and conjugates thereof” (Novartis AG, priority 2018, dated 2023).
Changes are numbered by the printed parent chain. Starred links: 1 amine or outer side, 2 acyl side, 3 side chain; linkers in the order of their positions; H or OH if unused. Positions of bridges follow the written chain, without caps; N, C: chain ends. Non-standard residues stand in square brackets, D forms with d. Residues, ends and D or L forms follow the SMILES beside them. *: point of attachment. Leu(3R-OH,Nα-propionyl) = CCC(=O)N[C@H](C(=O)*)[C@H](O)C(C)C; X1 = CC(C)[C@@H](O[*:3])[C@H](N[*:1])C(=O)[*:2]; NMeT = CN[C@H](C(=O)O)[C@@H](C)O; dPhLac = O=C(O)[C@H](O)Cc1ccccc1; NMeA = CN[C@@H](C)C(=O)O; NMeDha = C=C(NC)C(=O)O

T1: human PMEL17 (Homo sapiens, UniProt P40967)
T1 construct: G-361 melanoma cell line expresses human PMEL17 at a lower level compared to the HKB11-human PMEL17 overexpressing cell line; endogenous in cells; host or cells: G-361 (human melanoma)
T1 sequence (P40967 25-661): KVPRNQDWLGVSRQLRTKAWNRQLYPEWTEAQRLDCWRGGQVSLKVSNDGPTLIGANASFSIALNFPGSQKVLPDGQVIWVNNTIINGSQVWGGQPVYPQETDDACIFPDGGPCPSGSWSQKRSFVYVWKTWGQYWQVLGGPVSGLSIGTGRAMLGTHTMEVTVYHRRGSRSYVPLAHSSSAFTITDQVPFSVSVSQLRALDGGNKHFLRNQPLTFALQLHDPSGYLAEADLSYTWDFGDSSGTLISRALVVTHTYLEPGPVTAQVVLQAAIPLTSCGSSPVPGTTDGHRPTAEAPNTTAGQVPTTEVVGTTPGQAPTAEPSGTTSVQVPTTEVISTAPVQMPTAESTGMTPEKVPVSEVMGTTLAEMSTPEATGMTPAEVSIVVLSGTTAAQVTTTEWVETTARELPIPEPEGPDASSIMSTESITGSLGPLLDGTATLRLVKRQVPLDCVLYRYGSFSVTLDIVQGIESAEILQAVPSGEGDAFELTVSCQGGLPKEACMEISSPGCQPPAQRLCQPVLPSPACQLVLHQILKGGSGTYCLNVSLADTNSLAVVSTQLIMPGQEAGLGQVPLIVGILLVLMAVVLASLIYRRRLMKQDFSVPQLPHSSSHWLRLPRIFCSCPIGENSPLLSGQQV

T2: mouse PMEL17 (Mus musculus, UniProt Q60696)
T2 construct: B16-F10 (mouse PMEL17 expressing melanoma); endogenous in cells; host or cells: B16-F10 (mouse melanoma)
T2 sequence (Q60696 24-626): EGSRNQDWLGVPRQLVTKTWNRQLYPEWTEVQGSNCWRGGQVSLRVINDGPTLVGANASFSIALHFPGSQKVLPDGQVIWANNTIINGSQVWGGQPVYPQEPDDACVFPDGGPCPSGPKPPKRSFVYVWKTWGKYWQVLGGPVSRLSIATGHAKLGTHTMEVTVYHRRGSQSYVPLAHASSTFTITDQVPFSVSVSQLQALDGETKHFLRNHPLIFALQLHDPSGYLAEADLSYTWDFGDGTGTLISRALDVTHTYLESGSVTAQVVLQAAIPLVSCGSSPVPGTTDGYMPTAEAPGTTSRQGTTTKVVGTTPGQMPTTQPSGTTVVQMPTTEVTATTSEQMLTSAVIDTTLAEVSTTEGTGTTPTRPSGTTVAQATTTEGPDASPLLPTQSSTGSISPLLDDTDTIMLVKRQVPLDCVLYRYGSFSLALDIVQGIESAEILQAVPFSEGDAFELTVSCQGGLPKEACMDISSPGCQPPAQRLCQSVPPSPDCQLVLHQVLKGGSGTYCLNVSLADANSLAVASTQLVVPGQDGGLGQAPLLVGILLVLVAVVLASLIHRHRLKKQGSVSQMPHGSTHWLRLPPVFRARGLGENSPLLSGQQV

B1: MOR024354: anti-PMEL17 antibody (IgG) (antibody, V domains shown)
VH: QVQLLESGGGLVQPGGSLRLSCAASGFTFSSFGMSWVRQAPGKGLEWVSAISYSGSDTYYADSVKGRFTISRDNSKNTLYLQMNSLRAEDTAVYYCARDVGVMDYWGQGTLVTVSS
VL: SYELTQPLSVSVALGQTARITCSGDNLGTYYAHWYQQKPGQAPVLVIYSQSHRPSGIPERFSGSNSGNTATLTISRAQAGDEADYYCGAWDAPSPELVFGGGTKLTVL
B2: MOR024353: anti-PMEL17 antibody (IgG) (antibody, V domains shown)
VH: QVQLVQSGAEVKKPGSSVKVSCKASGGTFSDYAISWVRQAPGQGLEWMGGIIPIFGDANYAQKFQGRVTITADESTSTAYMELSSLRSEDTAVYYCAREGSSYFYMAYWGQGTLVTVSS
VL: SYELTQPLSVSVALGQTARITCSGDNIGSKLASWYQQKPGQAPVLVIYDDSNRPSGIPERFSGSNSGNTATLTISRAQAGDEADYYCAATAGDRWAYVFGGGTKLTVL
B3: Y010900: anti-PMEL17 antibody (IgG) (antibody, V domains shown)
VH: EVQLVESGGGLVKPGGSLRLSCAASGFTFSNAWMSWVRQAPGKGLEWVGRIKSKTDAGTTDYAAPVKGRFTISRDDSKNTLYLQMNSLKTEDTAVYYCARTIYPSAPSSSLDYWGQGTLVTVSS
VL: DIQMTQSPSSLSASVGDRVTITCRASQGISNYLAWYQQKPGKVPKLLIYAASTLQSGVPSRFSGSGSGTDFTLTISSLQPEDVATYYCQQLIFFPLTFGQGTKVEIK
B4: Y010906: anti-PMEL17 antibody (IgG) (antibody, V domains shown)
VH: EVQLVESGGGLVKPGGSLRLSCAASGFTFSNAWMSWVRQAPGKGLEWVGRIKSKTDAGTTDYAAPVKGRFTISRDDSKNTLYLQMNSLKTEDTAVYYCARDEYPWGWFDVWGQGTLVTVSS
VL: B3 VL with L11V, N31S, Y32W, V43A, T53S, V83F, L91Y, F94Y
B5: Y010356: anti-PMEL17 antibody (IgG) (antibody, V domains shown)
VH: EVQLVESGGGLVKPGGSLRLSCAASGFTFSNYWISWVRQAPGKGLEWVGRIKSKTYGGTTDYAEPVKGRFTISRDDSKNTLYLQMNSLKTEDTAVYYCARVSGYYSHSGGFDVWGQGTLVTVSS
VL: B3 VL with Q90K, L91T, I92W, F93R, F94T, L96G
B6: Y010910: anti-PMEL17 antibody (IgG) (antibody, V domains shown)
VH: EVQLVESGGGLVKPGGSLRLSCAASGFTFSNAWMSWVRQAPGKGLEWVGRIKSKTDAGTTDYAAPVKGRFTISRDDSKNTLYLQMNSLKTEDTAVYYCARVASPSAPGGFDYWGQGTLVTVSS
VL: B3 VL with L91S, I92L, F94A, L96F
B7: Y010355: anti-PMEL17 antibody (IgG) (antibody, V domains shown)
VH: EVQLVESGGGLVKPGGSLRLSCAASGFTFSNYWISWVRQAPGKGLEWVGRIKSKTYGGTTDYAEPVKGRFTISRDDSKNTLYLQMNSLKTEDTAVYYCARTSRRSYAFDYWGQGTLVTVSS
VL: DIQMTQSPSTLSASVGDRVTITCRASQSISSWLAWYQQKPGKAPKLLIYDASSLESGVPSRFSGSGSGTEFTLTISSLQPEDFATYYCQQITRYPVTFGQGTKVEIK
B8: Y010903: anti-PMEL17 antibody (IgG) (antibody, V domains shown)
VH: EVQLVESGGGLVKPGGSLRLSCAASGFTFSNAWMSWVRQAPGKGLEWVGRIKSKTDAGTTDYAAPVKGRFTISRDDSKNTLYLQMNSLKTEDTAVYYCARASHRLHSLFDVWGQGTLVTVSS
VL: B7 VL with I91G, T92L, R93F, V96H

Test system: UACC-62
Experiment: FACS titration of IgGs on UACC-62 cells
Assay type: binding
Conditions: UACC-62, PE-labelled detection antibody
Description: (§1) Purified IgGs were titrated on a variety of PMEL17 expressing and PMEL17 non expressing cell lines (for control) to determine EC50 values. Cells were harvested using Accutase, adjusted to ˜4×10^6 cells/ml into FACS buffer (PBS, 3% FCS and 0.02% Na-Azide) and kept on ice to avoid internalization. 15 μl of cell suspension/well were transferred into 384 well V-bottom plates (Greiner, Cat #781280) and incubated with 15 μl of IgGs at different concentrations (most commonly from 200 to 3.5×10−3 nM) for 1 hour at 4° C., gently shaking. Following incubation, cells were washed three times with FACS buffer. After each washing step, cells were centrifuged (250×g, 5 min, 4° C.) and carefully resuspended. 15 μl of detection antibody conjugated to PE (PE-conjugated goat anti-human IgG, F(ab′)2 fragment specific, 1:150 in FACS buffer; Jackson Immuno Research, #109-116-097) or Alexa Fluor (Alexa Fluor-conjugated goat anti-human IgG, F(ab′)2 fragment specific, 1:150 in FACS buffer; Jackson Immuno Research, #109-606-097) were added and samples were incubated for 45 minutes to 1 hour on ice in the dark, gently shaking. After 3 washing steps, cells were resuspended in 30 μl of FACS buffer and samples were measured using the IntelliCyt HTFC device. EC50 values were calculated using the Graphpad Prism software. G-361 melanoma cell line expresses human PMEL17 at a lower level compared to the HKB11-human PMEL17 overexpressing cell line, and therefore allows a more precise ranking of the clones depending on their apparent affinity on cells.

Molecule | UACC-62 (PE)
B1 | Negative
B2 | Negative
B3 | Negative
B4 | Negative
B5 | Negative
B6 | Negative
B7 | Negative
B8 | Negative

Test system: PMEL17
Experiment: Cross-reactivity (cross-specificity profile) of anti-PMEL17 IgGs in dose response FACS
Assay type: binding
Set-up: key: h/c/r/m: human/cyno/rat/mouse; h/c/r: human/cyno/rat; h/c/(m): human/cyno/mouse; h/c: human/cyno
Conditions: h human, c cyno, r rat, m mouse
Description: (§2) The cross-specificity of the IgGs was evaluated in does response FACS on G-361 (human melanoma), HKB11-cyno-PMEL17, HKB11-rat PMEL17 and B16-F10 (mouse PMEL17 expressing melanoma) (Table 3). Testing on G-361 was performed using a detection antibody labelled to PE. In contrast, an Alexa-Fluor labelled detection antibody had to be used for testing the candidates on the other cell lines so as to reach detectable signals.
IgGs were classified into several epitope groups according to their cross-specificity profiles.

Molecule | Cross spe profile (based on C14 detection ab)
B1 | h/c/r
B2 | h/c
B3 | h/c/r/m
B4 | h/c/r/m
B5 | h/c/r/m
B6 | h/c/(m)
B7 | h/c/r/m
B8 | h/c/(m)

Target: T1, human PMEL17
Experiment: Apparent affinity by FACS titration of IgGs on G-361 melanoma cell line
Assay type: binding
Conditions: G-361, Alexa Fluor-labelled detection antibody; read-out: FACS EC50 (nM) G-361 (Alexa Fluor)
Description: as §1
The cross-specificity of the IgGs was evaluated in does response FACS on G-361 (human melanoma), HKB11-cyno-PMEL17, HKB11-rat PMEL17 and B16-F10 (mouse PMEL17 expressing melanoma) (Table 3). […]

EC50 [nM] | Molecule
1.7 | B1
62.8 | B2
1.3 | B3
10 | B6
3.2 | B8

Same assay, conditions: G-361, PE-labelled detection antibody; read-out: FACS EC50 (nM) G-361 (PE)

EC50 [nM] | Molecule
1.6 | B5
0.5 | B7

Target: T2, mouse PMEL17
Experiment: Apparent affinity by FACS titration of IgGs on B16-F10 melanoma cells
Assay type: binding
Conditions: Alexa Fluor
Description: as §1, §2

EC50 [nM] | Molecule
> 100 | B1
> 100 | B2
> 100 | B3

Test system: 92.1 uveal melanoma
Experiment: Resazurin-based viability assay, 92.1 uveal melanoma cells
Assay type: cell-based
Conditions: 92.1 GNAQ^Q209L; Table 1; read-out: GI50 (nM) 92.1GNAQ^Q209L
Description: (§3) Following drug treatment for 96 or 120 hours, cell viability and proliferation were determined using a resazurin-based viability assay. Briefly, cells were incubated with a resazurin-based solution and color change was detected by absorbance with a spectrophotometer and used as a readout of cell viability. Data presented as mean of 3 independent replicates and relative to PBS-treated cells (control).
as §3, with “(control) (FIG. 6).” for “(control).”
Following drug treatment for 96 or 120 hours, cell viability and proliferation were determined using a resazurin-based viability assay. Data presented as mean of 3 independent replicates and relative to PBS-treated cells (control) (FIG. 8).
as §3

Molecule | GI50 [nM]
C=C1C(=O)N[C@@H](C)C(=O)N(C)[C@@H](C)C(=O)N[C@@H]([C@H](OC(=O)[C@@H](NC(=O)CC)[C@H](O)C(C)C)C(C)C)C(=O)N(C)[C@@H]([C@@H](C)OC)C(=O)O[C@H](C)[C@H](NC(C)=O)C(=O)O[C@H](Cc2ccccc2)C(=O)N1C [Compound (A3), (R)-1-((3S,6S,9S,12S,18R,21S,22R)-21-acetamido-18-benzyl-3-((R)-1-methoxyethyl)-4,9,10,12,16,22-hexamethyl-15-methylene-2,5,8,11,14,17,20-heptaoxo-1,19-dioxa-4,7,10,13,16-pentaazacyclodocosan-6-yl)-2-methylpropyl (2S,3R)-3-hydroxy-4-methyl-2-propionamidopentanoate] (Ac-T[dPhLac][NMeDha]A[NMeA][X1](Leu(3R-OH,Nα-propionyl))[NMeT](Me); ester 1-C) | 9.3
